Source: paper PMC9105384, “Ethyl Gallate Dual-Targeting PTPN6 and PPARγ Shows Anti-Diabetic and Anti-Obese Effects” (International Journal of Molecular Sciences, 2022)

B1: PTPN9 (Homo sapiens) (protein)
chain: MEPATAPRPDMAPELTPEEEQATKQFLEEINKWTVQYNVSPLSWNVAVKFLMARKFDVLRAIELFHSYRETRRKEGIVKLKPHEEPLRSEILSGKFTILNVRDPTGASIALFTARLHHPHKSVQHVVLQALFYLLDRAVDSFETQRNGLVFIYDMCGSNYANFELDLGKKVLNLLKGAFPARLKKVLIVGAPIWFRVPYSIISLLLKDKVRERIQILKTSEVTQHLPRECLPENLGGYVKIDLATWNFQFLPQVNGHPDPFDEIILFSLPPALDWDSVHVPGPHAMTIQELVDYVNARQKQGIYEEYEDIRRENPVGTFHCSMSPGNLEKNRYGDVPCLDQTRVKLTKRSGHTQTDYINASFMDGYKQKNAYIGTQGPLENTYRDFWLMVWEQKVLVIVMTTRFEEGGRRKCGQYWPLEKDSRIRFGFLTVTNLGVENMNHYKKTTLEIHNTEERQKRQVTHFQFLSWPDYGVPSSAASLIDFLRVVRNQQSLAVSNMGARSKGQCPEPPIVVHCSAGIGRTGTFCSLDICLAQLEELGTLNVFQTVSRMRTQRAFSIQTPEQYYFCYKAILEFAEKEGMVSSGQNLLAVESQ
B2: PTPN3 (Homo sapiens) (protein)
chain: MTSRLRALGGRINNIRTSELPKEKTRSEVICSIHFLDGVVQTFKVTKQDTGQVLLDMVHNHLGVTEKEYFGLQHDDDSVDSPRWLEASKAIRKQLKGGFPCTLHFRVRFFIPDPNTLQQEQTRHLYFLQLKMDICEGRLTCPLNSAVVLASYAVQSHFGDYNSSIHHPGYLSDSHFIPDQNEDFLTKVESLHEQHSGLKQSEAESCYINIARTLDFYGVELHSGRDLHNLDLMIGIASAGVAVYRKYICTSFYPWVNILKISFKRKKFFIHQRQKQAESREHIVAFNMLNYRSCKNLWKSCVEHHTFFQAKKLLPQEKNVLSQYWTMGSRNTKKSVNNQYCKKVIGGMVWNPAMRRSLSVEHLETKSLPSRSPPITPNWRSPRLRHEIRKPRHSSADNLANEMTYITETEDVFYTYKGSLAPQDSDSEVSQNRSPHQESLSENNPAQSYLTQKSSSSVSPSSNAPGSCSPDGVDQQLLDDFHRVTKGGSTEDASQYYCDKNDNGDSYLVLIRITPDEDGKFGFNLKGGVDQKMPLVVSRINPESPADTCIPKLNEGDQIVLINGRDISEHTHDQVVMFIKASRESHSRELALVIRRRAVRSFADFKSEDELNQLFPEAIFPMCPEGGDTLEGSMAQLKKGLESGTVLIQFEQLYRKKPGLAITFAKLPQNLDKNRYKDVLPYDTTRVLLQGNEDYINASYVNMEIPAANLVNKYIATQGPLPHTCAQFWQVVWDQKLSLIVMLTTLTERGRTKCHQYWPDPPDVMNHGGFHIQCQSEDCTIAYVSREMLVTNTQTGEEHTVTHLQYVAWPDHGVPDDSSDFLEFVNYVRSLRVDSEPVLVHCSAGIGRTGVLVTMETAMCLTERNLPIYPLDIVRKMRDQRAMMVQTSSQYKFVCEAILRVYEEGLVQMLDPS
B3: PTPN2 (Homo sapiens) (protein)
chain: MPTTIEREFEELDTQRRWQPLYLEIRNESHDYPHRVAKFPENRNRNRYRDVSPYDHSRVKLQNAENDYINASLVDIEEAQRSYILTQGPLPNTCCHFWLMVWQQKTKAVVMLNRIVEKESVKCAQYWPTDDQEMLFKETGFSVKLLSEDVKSYYTVHLLQLENINSGETRTISHFHYTTWPDFGVPESPASFLNFLFKVRESGSLNPDHGPAVIHCSAGIGRSGTFSLVDTCLVLMEKGDDINIKQVLLNMRKYRMGLIQTPDQLRFSYMAIIEGAKCIKGDSSIQKRWKELSKEDLSPAFDHSPNKIMTEKYNGNRIGLEEEKLTGDRCTGLSSKMQDTMEENSESALRKRIREDRKATTAQKVQQMKQRLNENERKRKRWLYWQPILTKMGFMSVILVGAFVGWTLFFQQNAL
B4: PTPN7 (Homo sapiens) (protein)
chain: MVQAHGGRSRAQPLTLSLGAAMTQPPPEKTPAKKHVRLQERRGSNVALMLDVRSLGAVEPICSVNTPREVTLHFLRTAGHPLTRWALQRQPPSPKQLEEEFLKIPSNFVSPEDLDIPGHASKDRYKTILPNPQSRVCLGRAQSQEDGDYINANYIRGYDGKEKVYIATQGPMPNTVSDFWEMVWQEEVSLIVMLTQLREGKEKCVHYWPTEEETYGPFQIRIQDMKECPEYTVRQLTIQYQEERRSVKHILFSAWPDHQTPESAGPLLRLVAEVEESPETAAHPGPIVVHCSAGIGRTGCFIATRIGCQQLKARGEVDILGIVCQLRLDRGGMIQTAEQYQFLHHTLALYAGQLPEEPSP
B5: SSH2 (Homo sapiens) (protein)
chain: MALVTVQRSPTPSTTSSPCASEADSGEEECRSQPRSISESFLTVKGAALFLPRGNGSSTPRISHRRNKHAGDLQQHLQAMFILLRPEDNIRLAVRLESTYQNRTRYMVVVSTNGRQDTEESIVLGMDFSSNDSSTCTMGLVLPLWSDTLIHLDGDGGFSVSTDNRVHIFKPVSVQAMWSALQSLHKACEVARAHNYYPGSLFLTWVSYYESHINSDQSSVNEWNAMQDVQSHRPDSPALFTDIPTERERTERLIKTKLREIMMQKDLENITSKEIRTELEMQMVCNLREFKEFIDNEMIVILGQMDSPTQIFEHVFLGSEWNASNLEDLQNRGVRYILNVTREIDNFFPGVFEYHNIRVYDEEATDLLAYWNDTYKFISKAKKHGSKCLVHCKMGVSRSASTVIAYAMKEYGWNLDRAYDYVKERRTVTKPNPSFMRQLEEYQGILLASKQRHNKLWRSHSDSDLSDHHEPICKPGLELNKKDITTSADQIAEVKTMESHPPIPPVFVEHMVPQDANQKGLCTKERMICLEFTSREFHAGQIEDELNLNDINGCSSGCCLNESKFPLDNCHASKALIQPGHVPEMANKFPDLTVEDLETDALKADMNVHLLPMEELTSPLKDPPMSPDPESPSPQPSCQTEISDFSTDRIDFFSALEKFVELSQETRSRSFSHSRMEELGGGRNESCRLSVVEVAPSKVTADDQRSSSLSNTPHASEESSMDEEQSKAISELVSPDIFMQSHSENAISVKEIVTEIESISQGVGQIQLKGDILPNPCHTPKKNSIHELLLERAQTPENKPGHMEQDEDSCTAQPELAKDSGMCNPEGCLTTHSSIADLEEGEPAEGEQELQGSGMHPGAKWYPGSVRRATLEFEERLRQEQEHHGAAPTCTSLSTRKNSKNDSSVADLAPKGKSDEAPPEHSFVLKEPEMSKGKGKYSGSEAGSLSHSEQNATVPAPRVLEFDHLPDPQEGPGSDTGTQQEGVLKDLRTVIPYQESETQAVPLPLPKRVEIIEYTHIVTSPNHTGPGSEIATSEKSGEQGLRKVNMEKSVTVLCTLDENLNRTLDPNQVSLHPQVLPLPHSSSPEHNRPTDHPTSILSSPEDRGSSLSTALETAAPFVSHTTHLLSASLDYLHPQTMVHLEGFTEQSSTTDEPSAEQVSWEESQESPLSSGSEVPYKDSQLSSADLSLISKLGDNTGELQEKMDPLPVACRLPHSSSSENIKSLSHSPGVVKERAKEIESRVVFQAGLTKPSQMRRSASLAKLGYLDLCKDCLPEREPASCESPHLKLLQPFLRTDSGMHAMEDQESLENPGAPHNPEPTKSFVEQLTTTECIVQSKPVERPLVQYAKEFGSSQQYLLPRAGLELTSSEGGLPVLQTQGLQCACPAPGLAVAPRQQHGRTHPLRRLKKANDKKRTTNPFYNTM

Each protein was assayed on Cc1cc(=O)oc2c(F)c(OP(=O)(O)O)c(F)cc12 (assay: purified protein, by the assay type).
Design: DiFMUP hydrolysis by purified PTPs, fluorescence Ex355/Em460, initial rates over 10 min; Michaelis-Menten and Lineweaver-Burk Km
Protocol: The enzymatic activity of each PTP was evaluated using 6,8-difluoro-4-methylumbelliferyl phosphate (DiFMUP) as the surrogate substrate. To reach within the range of the initial rate (v0) during the measurement for 10 min, the pH and concentration of each PTP were optimized and are listed in Table S3. To determine the Km values, each PTP with optimized concentration was added to the reaction buffer (20 mM Bis-Tris at pH 6.0 or Tris at pH 7.0 and 8.0, 150 mM NaCl, 2.5 mM dithiothreitol (DTT), 0.01% Triton X-100) containing various concentrations of DiFMUP to obtain a final volume of 100 μL in a 96-well plate. Fluorescence intensities were measured once every minute for a complete 10 min duration using a Victor™ X4 Multilabel Plate Reader (Perkin Elmer, Waltham, MA, USA) at excitation/emission = 355 nm/460 nm. The initial rates of the reaction were determined using a previously described procedure for calculating the amount of product formation. To screen a library of 1033 natural products (Chengdu Biopurify Phytochemicals Ltd., Chengdu, China) against 20 PTPs, each PTP with an optimized concentration was added to the reaction buffer with an optimized pH containing DiFMUP (2 × Km for each PTP) after adding each compound (20 μM). […] The IC50 values were estimated using a sigmoid plot in GraphPad Prism 5 software (GraphPad Software Inc., San Diego, CA, USA). The Hill coefficient (nH), the degree of cooperativity, was calculated according to a previously published method. To determine the inhibition constant (Ki) and identify the inhibition mode of EG, various concentrations of EG (2.5, 5, 10, and 20 μM) were assayed with various concentrations of DiFMUP (260, 130, 65, and 32.5 μM). Kinetic parameters were obtained using Dixon plots for Ki and Lineweaver-Burk plots for the inhibition mode.
B1 showed a Km of 110 µM. B2 was tested, and the Km was 2.0 µM. In the case of B3, the Km is reported as 20.0 µM. For B4, the Km was 25.5 µM. Work on B5 yielded a Km of 215.3 µM.
